Measurements from the supplement of paper PMC10126150.
± gives the standard deviation of the averaged measurements.

test system: ATP; assay: switch fluorescence ratio, 500 uM ATP over buffer (Cy3 cluster intensity, sum of 5 cycles each) (fold (ratio)); higher = stronger signal-on switching upon ATP binding; sequences stand for … in TCGTCGGCAGCGTCAGATGTGTATAAGAGACAGTTTTTTTTTTTTTTTTTTTTTTTTT…TC; settings: aptamer strand: ATP DNA aptamer (quencher-CACCTGGGGGAGTATTGCGGAGGAAGG + anchor), 100 nM annealed; ATP concentration: 500 uM
Summary of the method: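 For every switch-domain sequence, the fluorescence ratio is the mean of per-cluster values, each being summed target-cycle Cy3 intensity over summed buffer-cycle Cy3 intensity. Clusters outside 100-1000 RFU were excluded. On a modified Illumina MiSeq flow-cell, the Cy3-labelled switching-strand clusters were annealed to 100 nM quencher-labelled ATP aptamer, imaged in selection buffer and then after 15 min with 500 uM ATP at 22 °C. Five such cycles were run, with NaOH stripping and re-annealing between them.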
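Further: ATP exposure 15 min at 22 °C before imaging.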

Row | Sequence | switch fluorescence ratio
1 | AATTAACGCG | 0.993 ± 0.023
2 | ATTGGAGCAG | 1.055 ± 0.0098
3 | TCAAAGAAC | 1.0338 ± 0.00026
4 | TGCCCGCTGC | 1.27 ± 0.017
5 | TTGATAGCCT | 1.06 ± 0.059
6 | ATATATCGGG | 0.999 ± 0.013
7 | TTATTGCTCG | 0.989 ± 0.021
8 | AACGGGATTA | 0.987 ± 0.047
9 | GGGGAGGGTA | 1.03 ± 0.015
10 | TGTAATTTGA | 0.984 ± 0.021
11 | GTGTTAGGCG | 0.981 ± 0.018
12 | TCGGATAAGT | 1.01 ± 0.034
13 | TTATGAGGTT | 1.02 ± 0.026
14 | TTTTTGATAT | 1.05 ± 0.056
15 | GGTTTTTTTG | 1.02 ± 0.037
16 | AATGGAGGGA | 0.974 ± 0.011
17 | GTTATATGGA | 0.996 ± 0.018
18 | TCCAGACGGC | 1 ± 0.013
19 | TTAGGAGATG | 0.9802 ± 0.0059
20 | ATGGGTTAGC | 0.998 ± 0.011
21 | CGTGGTAAGG | 0.989 ± 0.026
22 | TTTAAAAATT | 0.987 ± 0.026
23 | GAAGCTGCCA | 1.031 ± 0.0067

Row | Sequence | switch fluorescence ratio
24 | ATGTGCTCTA | 0.9692 ± 0.0047
25 | GGGGTTCAGA | 0.9846 ± 0.0041
26 | TTATAGTTGA | 0.9944 ± 0.0015
27 | AAACTTGCCC | 1.09 ± 0.012
28 | AGATGACGTT | 1.01 ± 0.046
29 | AGTCGGACGG | 1.01 ± 0.034
30 | GATTATTGGG | 0.988 ± 0.036
31 | TCTGTGTTGA | 1 ± 0.011
32 | GGATCCACGG | 1.012 ± 0.005
33 | ACTATAGTGT | 1.02 ± 0.022
34 | GGGAAAGATT | 1.005 ± 0.01
35 | GACAGGGTTG | 1.001 ± 0.0062
36 | AAATTCGAAT | 1.02 ± 0.041
37 | TTTTTGTGGA | 1.03 ± 0.019
38 | TCAAAACGGT | 1.34 ± 0.51
39 | CATTAGGATG | 0.9941 ± 0.0021
40 | AATAAATTAA | 0.977 ± 0.031
41 | AAGAAATTTG | 0.992 ± 0.015
42 | AATGGCACAG | 1.01 ± 0.015
43 | AGGAGGAGGG | 0.932 ± 0.021
44 | TGGCGTGGGG | 1.01 ± 0.021
45 | TTAGACAAGG | 0.95377 ± 0.00078
46 | AAGTTTGGGC | 0.98 ± 0.036

Row | Sequence | switch fluorescence ratio
47 | CGATCTTTAC | 1.29 ± 0.017
48 | TGTGGAAAGG | 1 ± 0.014
49 | TTTTTATACG | 0.984 ± 0.072
50 | GTTATTATAG | 0.992 ± 0.005
51 | TCCTGATTTT | 1.02 ± 0.037
52 | CTTGTATCGT | 0.971 ± 0.015
53 | AGTTGGGATC | 1.036 ± 0.008
54 | GCAGGGCGGG | 0.99 ± 0.011
55 | AATATCTCAC | 1.022 ± 0.0087
56 | ATGAGGCACG | 1.05 ± 0.068
57 | TCAAAACTGT | 1.07 ± 0.067
58 | TTTAGGTGTG | 1.02 ± 0.039
59 | GCTGTATGTT | 0.974 ± 0.022
60 | GGAGAAAGCG | 0.976 ± 0.016
61 | TGTGGGATGG | 1 ± 0.028
62 | GGGGAATGTG | 0.963 ± 0.013
63 | GTACTACCTA | 1.14 ± 0.022
64 | ACTCCATACA | 1.21 ± 0.04
65 | TCGATTGGTG | 1.01 ± 0.013
66 | ACTGTGCTTT | 1.015 ± 0.0097
67 | GTGTTGTTCG | 0.995 ± 0.015
68 | CGGGTGGTGC | 1.014 ± 0.0086
69 | GCCGGATTGA | 1.02 ± 0.041

Row | Sequence | switch fluorescence ratio
70 | CGCGGAGCTT | 1.03 ± 0.033
71 | TTTACGCGCA | 1.01 ± 0.03
72 | GTTGAGTAGG | 0.994 ± 0.012
73 | GATATTATTC | 1.05 ± 0.079
74 | TTTTTTGGGG | 0.984 ± 0.023
75 | AGACTAAAAG | 0.986 ± 0.015
76 | CGGAGAAGGG | 0.974 ± 0.029
77 | GATTAATGGC | 1.04 ± 0.052
78 | CTCATTGGGC | 0.991 ± 0.027
79 | AATTTACACT | 1.06 ± 0.014
80 | CCGGGGTCCG | 1.13 ± 0.041
81 | ACAAATGCAG | 1.01 ± 0.013
82 | GATTGAGAAG | 0.996 ± 0.023
83 | GCGTGGTCTG | 0.971 ± 0.04
84 | TTCTCGCTGG | 1 ± 0.041
85 | CAATACAGTC | 1.03 ± 0.011
86 | TCTAGAACGC | 1.01 ± 0.013
87 | AACTTTAGGG | 0.997 ± 0.039
88 | ACGGTTGTGG | 1.01 ± 0.026
89 | ATAAAGTATG | 0.99 ± 0.018
90 | GCCGATTACG | 1.02 ± 0.033
91 | GCATTCGGAT | 1.01 ± 0.014
92 | ATTGGTTTGT | 0.998 ± 0.013

Row | Sequence | switch fluorescence ratio
93 | GACAGATCCC | 0.982 ± 0.014
94 | AGGCTTGGGC | 0.971 ± 0.012
95 | GGAGGATGAG | 1.01 ± 0.013
96 | CTTGCATTTT | 1.04 ± 0.031
97 | AAGGTTTGTT | 0.996 ± 0.049
98 | TTTCCGGAAT | 1.661 ± 0.011
99 | GATGTGGGTT | 1.03 ± 0.032
100 | TCCTGCTCCG | 1.56 ± 0.13
101 | AGGGAATCGT | 0.9953 ± 0.0013
102 | GAAAAGGTTC | 1.04 ± 0.044
103 | TTGTTGTTAT | 0.991 ± 0.017
104 | GGTTGAGTTC | 0.948 ± 0.036
105 | TTAGGGTGAT | 0.974 ± 0.059
106 | TGGGTCATTT | 0.99 ± 0.034
107 | AAAGGGCTGC | 1.02 ± 0.13
108 | AATATTTATT | 1.02 ± 0.0091
109 | ATGTTCGTAG | 0.989 ± 0.015
110 | CAGCTTTTGG | 0.993 ± 0.039
111 | CTGTATAAGT | 0.985 ± 0.015
112 | GAAATGTGGT | 0.997 ± 0.02
113 | TATGTAAGGA | 0.985 ± 0.041
114 | AGAGGGTACG | 1.06 ± 0.017
115 | CCGGGGTAGG | 1.04 ± 0.024

Row | Sequence | switch fluorescence ratio
116 | ATTCGTCTAG | 0.989 ± 0.012
117 | GAGCGTCACG | 1.006 ± 0.0055
118 | TGTTGGGGGT | 0.962 ± 0.034
119 | TCAGTACATG | 0.992 ± 0.02
120 | TAAAGCATTA | 1.04 ± 0.025
121 | GGATGAAGGA | 0.978 ± 0.038
122 | TAAGTGCAT | 1.0026 ± 4.4e-05
123 | CAGATTTGTT | 0.992 ± 0.018
124 | TTAGTCACGC | 1.029 ± 0.0092
125 | CCTTTGCCGC | 1.58 ± 0.54
126 | ATTTTTAGGC | 1.11 ± 0.11
127 | ATCTAGTTTG | 1.01 ± 0.045
128 | TGTTCGTCGT | 0.9693 ± 0.0039
129 | GCTGTAATCT | 0.999 ± 0.027
130 | ATGATGGTCC | 0.9778 ± 0.0014
131 | GGGCAACTTT | 0.997 ± 0.049
132 | ATATGCTAAG | 0.9935 ± 0.0099
133 | GGTTCTCAGG | 1.02 ± 0.011
134 | GGCAAAGGAC | 1.08 ± 0.027
135 | CTGGTCGCGT | 0.9873 ± 0.0081
136 | TCGTAGGGGT | 0.995 ± 0.018
137 | TTGTGAATTC | 0.977 ± 0.043
138 | TGGAGAGGAT | 0.9825 ± 0.0026

Row | Sequence | switch fluorescence ratio
139 | TGATGGCGTT | 1 ± 0.031
140 | ACGGTAGGGC | 1.03 ± 0.013
141 | TTGAAGCGGC | 1.59 ± 0.76
142 | GGTTAACTGT | 1.01 ± 0.026
143 | CAGTTCAGTA | 0.992 ± 0.03
144 | GGAAGGCGGC | 1.08 ± 0.071
145 | TTAAGAATTT | 0.991 ± 0.031
146 | TTTTTTATAA | 1.01 ± 0.023
147 | TGTGCGACCT | 1.16 ± 0.043
148 | GGGTCATGGG | 0.989 ± 0.033
149 | GCCCTTGTCA | 1.01 ± 0.019
150 | GGAGAGGCGT | 1 ± 0.013
151 | GATGCGCGTG | 1 ± 0.019
152 | ATGCGGGCCC | 0.99 ± 0.012
153 | GGGTAATGGG | 0.982 ± 0.024
154 | AGCGTTGATG | 1.01 ± 0.03
155 | GAAGGCTAAT | 0.974 ± 0.022
156 | AAGATCACTT | 0.979 ± 0.041
157 | AGGTATTTG | 0.986 ± 0.013
